Test results taken from patent US11484611B2, “Method for sterilizing biological materials” (FM&G Biomed Co., Ltd., priority 2006, dated 2022).

Columns and labels:
Format in all cases: physicochemical
[1] = Fluorescence intensity of riboflavin solutions under ultraviolet irradiation; settings: aqueous solution; compared with untreated riboflavin solutions; higher intensity = degradation
Experimental: Dehydrated riboflavin was untreated, sterilized by autoclave, or sterilized with ozone. Samples were then dissolved in water to prepare six riboflavin solutions, i.e., solution 1 (100 mg/mL, autoclaved), solution 2 (100 mg/mL, ozone-sterilized), solution 3 (100 mg/mL, untreated), solution 4 (50 mg/mL, autoclaved), solution 5 (50 mg/mL, ozone-sterilized), and solution 6 (50 mg/mL, untreated). Fluorescence intensities of the six solutions were observed under ultraviolet irradiation.

[2] = Acrylamide gel electrophoresis of sterilized pepsin and bromelain; settings: 5% acrylamide gel, Coomassie blue
Experimental: Samples of two dehydrated enzymes, i.e., pepsin and bromelain, were untreated, sterilized by autoclave, or sterilized with ozone. Subsequently, the samples were dissolved acetate solutions, analyzed by 5% acrylamide gel electrophoresis, and stained with Coomassie blue.

[3] = Molecular property of sterilized collagen by acrylamide gel electrophoresis
Experimental: Molecular Property of Sterilized Collagen: equivalent amounts of dehydrated collagen were subjected to the following respective treatments: (1) non-treatment; (2) treatment with ozone gas, as described in Example 1; (3) treatment with ultraviolet irradiation for 12 hours; (4) immersion in 75 vol. % ethanol for 4 hours; (5) immersion in 2 vol. % formaldehyde for 1 hour; or (6) autoclave sterilization under high-temperature and high-pressure. Afterwards, each of the samples from the aforementioned treatments was dissolved in acetate solution, analyzed by 5% acrylamide gel electrophoresis, and stained with Coomassie blue.

[4] = Capillary electrochromatography of sterilized hyaluronan; settings: absorbance at 194 nm, corresponds to amount of hyaluronan
Experimental: Two equivalent amounts of hyaluronan (average molecular weight: 58 kDa), were respectively subjected to ozone sterilization and autoclave sterilization. Subsequently, the sterilized samples were analyzed by capillary electrochromatography using a fused silica capillary and a 50 mM phosphate buffer (pH 2.99). Separations were carried out at 25 kV and a column temperature of 25° C. Absorbance was detected at 194 nm. Shown in Table 3 below are the areas under the peak for each of the two samples, which correspond to the amount of hyaluronan contained therein. An untreated sample was included as the control.

## Cc1cc2nc3c(=O)[nH]c(=O)nc-3n(C[C@H](O)[C@H](O)[C@H](O)CO)c2cc1C [solution 1, riboflavin]
[1]
  fluorescence intensity under ultraviolet irradiation: higher than those of the untreated control solutions

## Cc1cc2nc3c(=O)[nH]c(=O)nc-3n(C[C@H](O)[C@H](O)[C@H](O)CO)c2cc1C [solution 4, riboflavin]
[1]
  fluorescence intensity under ultraviolet irradiation: higher than those of the untreated control solutions

## bromelain
[2]; autoclaved
  band in electrophoresis gel: only showed an indistinct band
[2]; ozone-treated
  band in electrophoresis gel: the same band as the control

## collagen
[3]; autoclave sterilization, high-temperature and high-pressure, lane (6)
  bands of α1, α2 and β chains in electrophoresis gel: mostly degraded
[3]; immersion in 2 vol. % formaldehyde for 1 hour, lane (5)
  bands of α1, α2 and β chains in electrophoresis gel: showed no bands
[3]; immersion in 75 vol. % ethanol for 4 hours, lane (4)
  bands of α1, α2 and β chains in electrophoresis gel: only showed indistinct bands
[3]; treated by ozone gas, lane (2), 5% acrylamide gel, Coomassie blue
  bands of α1, α2 and β chains in electrophoresis gel: substantially the same as the control
[3]; ultraviolet irradiation for 12 hours, lane (3)
  bands of α1, α2 and β chains in electrophoresis gel: partially polymerized and cleaved

## hyaluronan
[4]; Autoclaved
  Area under the Peak: 633930
[4]; Ozone-treated
  Area under the Peak: 814725

## pepsin
[2]; autoclaved
  band in electrophoresis gel: a band with substantially reduced stain density
[2]; ozone-treated
  band in electrophoresis gel: a single band that was the same as that shown by untreated pepsin
